Experimental data as given in doi:10.1101/2023.06.13.544862.

What was measured:
[1] = biological target: EED labelled for microscale thermophoresis (human) (UniProt O75530); assay: MST
[2] = biological target: JMJD3 JmjC domain labelled for microscale thermophoresis (UniProt O15054); assay: MST
Chain of JMJD3 JmjC domain labelled for microscale thermophoresis (O15054 1339-1502): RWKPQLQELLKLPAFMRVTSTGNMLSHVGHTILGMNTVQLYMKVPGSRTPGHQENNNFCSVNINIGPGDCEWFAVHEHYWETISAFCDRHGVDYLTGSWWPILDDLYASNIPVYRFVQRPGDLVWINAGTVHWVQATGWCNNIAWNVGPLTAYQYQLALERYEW

Chain of EED labelled for microscale thermophoresis (human) (O75530 whole entry, the tested form may be a part): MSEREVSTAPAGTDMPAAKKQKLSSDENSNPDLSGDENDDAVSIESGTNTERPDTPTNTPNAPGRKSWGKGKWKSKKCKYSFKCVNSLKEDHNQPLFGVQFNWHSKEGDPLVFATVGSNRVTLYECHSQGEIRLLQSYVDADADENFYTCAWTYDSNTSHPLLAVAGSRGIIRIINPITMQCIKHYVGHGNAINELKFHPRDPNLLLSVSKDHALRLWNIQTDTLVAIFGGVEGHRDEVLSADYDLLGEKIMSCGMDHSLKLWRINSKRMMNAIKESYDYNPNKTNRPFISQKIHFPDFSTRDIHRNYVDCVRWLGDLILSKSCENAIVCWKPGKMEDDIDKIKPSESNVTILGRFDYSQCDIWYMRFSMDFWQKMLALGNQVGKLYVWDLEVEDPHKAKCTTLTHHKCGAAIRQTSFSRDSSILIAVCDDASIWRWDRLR

Row | Substance | Kd [1] | Kd [2]
1 | NOP16 aa 25-32 peptide, di-methylated K29 (from UniProt Q9Y3C1 25-32) | 131 µM | –
2 | NOP16 aa 25-32 peptide, mono-methylated K29 (from UniProt Q9Y3C1 25-32) | 100 µM | –
3 | NOP16 aa 25-32 peptide, tri-methylated K29 (from UniProt Q9Y3C1 25-32) | 1.21 µM | –

The remaining substances from weak to strong by Kd [1], led by results:

Row | Kd [1] | Kd [2] | Substance
4 | 11.6 µM | – | NOP16 aa 25-32 peptide, unmethylated K29 (from UniProt Q9Y3C1 25-32)
5 | 0.95 µM | 8.59 µM | H3K27me3 peptide
